According to the supplement of paper PMC12042874:
± gives the uncertainty stated by the source.

Experiment: amyloid nucleation score (Sup35N fusion, yeast selection) (log enrichment); library NNK2; higher = more nucleation; inactive = no reads after selection
How it was run: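 Peptides of 20 random codons, each fused to Sup35N, were expressed in psi-negative yeast. Cells were induced with 100 μM copper sulfate for 24 hours and grown 7 days at 30°C on medium lacking adenine and uracil, and plasmid inserts before and after selection were Illumina-sequenced. Nucleation scores are DiMSum log enrichments of output over input reads, centred on the mode score of non-aggregating sequences, and sequences under 100 input reads were excluded.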

Substance | amyloid nucleation score
KYNSCSYEGSRRILFSGACR | -0.699 ± 0.45
KYVFGKTYPRY | inactive
LAALR | 0.159 ± 0.3
LAGGCRRTPAVINRLFVKTA | 0.374 ± 0.4
LAGNKYPWLS | -1.1 ± 0.53
LAHGPWGVSGDSV | 0.019 ± 1.1
LAIDIMPFPCDTLS | -0.289 ± 0.26
LAKFYLWCSGYMHSS | 0.214 ± 0.65
LAKHTGRAGKRCKDMP | -0.069 ± 0.31
LALCREWVTAGSGSFYLDGP | -0.06 ± 1.1
LALIMTFLQPGERLRGSVAI | inactive
LALMS | -0.324 ± 0.61
LANYYFYYKDDVWQVMLWCT | -1.15 ± 0.36
LARGCFAFN | -0.363 ± 1
LATNNVS | 0.979 ± 0.67
LATTVYFGAMGHVS | -1.38 ± 1
LATWLP | 0.871 ± 0.21
LAVHYHILRERTALCLGDHQ | -0.127 ± 1.1
LAVIGVSRGMGL | 0.716 ± 0.25
LAVLGVVDNIV | 0.516 ± 0.4
LAVVTCHCSSTCCSYLLNVG | 3.38 ± 0.06
LAYPMISVFYHELIIDLRSM | 3.92 ± 0.11
LAYRKVLCMYSVSHSYTRAC | inactive
LCFATYVGTGCVLGLPGYHK | 4.59 ± 0.066
LCHYGCMVRESNLEYCPSME | 0.381 ± 0.48

Substance | amyloid nucleation score
LCIDHYVDEMPSIRVVDFYF | 0.741 ± 0.6
LCINN | -1.99 ± 1.1
LCLDIMFVSNI | -0.696 ± 1
LCNGLFTFMEASSGRHAPQF | 0.138 ± 0.76
LCNNKAYNDKLSPEPLAISR | -0.578 ± 0.39
LCPLTHFFVFEVYFSDPYRE | 5.69 ± 0.075
LCSLDSMPHSYITCSAKRLI | -0.443 ± 0.3
LCSMEIWRMRRMMQS | 0.154 ± 0.34
LCVYLYWF | -1.01 ± 0.39
LCWLATRVLSSNDSLYENME | 3.65 ± 0.071
LCYMGRVA | 0.224 ± 0.34
LDCLRFTDFILIISKFVPVL | 0.026 ± 1.1
LDFHPVCRGMSSPCQCASMR | 0.907 ± 0.2
LDKKVSVSAVRLTRRDASEE | 2.25 ± 0.098
LDSSMSTGNLRLCFFESICS | 0.232 ± 0.56
LDYDKNKFWAQHLYSKQSSL | 0.805 ± 0.23
LDYRWKTGGSLWGG | -0.578 ± 1.1
LEAFWKVKSCSVRTGVYGID | -0.555 ± 0.79
LERLVSALLHTIRFRRMVVH | inactive
LESHLVMRYS | -0.307 ± 0.48
LEVKEVSEFLRLTYMYL | -1.67 ± 0.62
LFAIKTGQDHCNTRLKKSQC | -0.087 ± 0.76
LFCSRQSTWPRDKGVFPWTI | -0.916 ± 1.1
LFCTRMEVSLLGFWNSYAEL | -0.01 ± 0.45
LFDFGETVVIVLHVHSMLCL | 4.41 ± 0.092

Substance | amyloid nucleation score
LFERFWFIL | 0.187 ± 0.23
LFFSATKTCSWSLKECAKR | -0.243 ± 1.1
LFGLNFNLSNNLFMFFSYTQ | 3.46 ± 0.082
LFLGLFKLCNLASFMLWSWF | -0.627 ± 1
LFNGECGICDQEKYLVRQTV | 0.065 ± 1.1
LFNLKMSPSQRKNGLPVLTI | inactive
LFSCGKSMQLVMWYGLSFCG | 0.306 ± 0.37
LFSLPPCFN | 1.5 ± 0.11
LFVCMTLGYSLGKSHFDNGS | 4.1 ± 0.044
LFVIWNTCVNYFLDVLSGHN | 3.86 ± 0.12
LFVLLSDKTHSYSYAECQPM | 3.65 ± 0.052
LFVYWV | 0.126 ± 0.38
LGFAGSVGICDRKTLDRREC | 4.91 ± 0.064
LGFDASLKLFLVQQGLSN | -0.341 ± 0.33
LGIYIVGTNVSSSWLFLCNR | 0.476 ± 0.4
LGKFFNNPLLFGFY | inactive
LGLCEVNMFNIRHFTLRSCY | 0.219 ± 1
LGLLCTVEIHYLGNMYIHRP | 7.043 ± 0.045
LGLTSHTVPKCRCVGLMLMV | 0.438 ± 0.29
LGMCRGLRLIMMDWFGSDKM | 2.35 ± 0.075
LGSLDPKRHLYI | -0.784 ± 1.1
LGSLDSVFNSFHRAGS | -0.518 ± 0.56
LGTAKNFIPSGNVRLLALQF | inactive
LGTNMAMVGSN | -0.623 ± 0.27
LGVMRIVHVGLWSAR | -0.249 ± 0.55

Substance | amyloid nucleation score
LGWRVGWYASDAFYKPEWFD | -0.53 ± 0.41
LGYTSFYSFILKEGMFTAMG | 0.434 ± 0.27
LHAGPDKSA | 0.068 ± 0.46
LHIRVLSQVRLCDDWRASAS | -0.016 ± 0.33
LHMECLKDKSCNNSSADVRG | 0.374 ± 0.62
LIADLQKFSYVSWAGCMTY | 4.4 ± 0.085
LIICSAPCCVTTWQQLRTMQ | 4.15 ± 0.047
LIIVMTLPYFGTSAM | 0.362 ± 0.3
LILGLRGPLPCMLHNSGTYL | 0.19 ± 1.1
LILGYFRKELFKNASFVLNF | 4.05 ± 0.066
LILLY | -0.277 ± 1
LILRCLC | 0.235 ± 0.8
LITQKHFTRVTNMPIRLCSL | -0.491 ± 0.41
LIVVKCLSRRYCFCLLSVVV | 0.303 ± 0.32
LIYITVGRLQHGALCFLGKC | 0.148 ± 1
LKAWYYSVYSRTVTYSPMLH | -1.03 ± 0.61
LKCHVLGVHCAL | 0.205 ± 0.19
LKCPGLTREGLSPYKSSLPN | -0.202 ± 1
LKEHYF | -1.44 ± 0.55
LKGQYWVLRKGGCEGGLSAG | 1.81 ± 0.45
LKLYDKAR | 0.213 ± 0.55
LKMGVGCRGRLLWCSLTCMR | 1.46 ± 0.31
LKNKSPCSR | 0.039 ± 0.29
LKNNNQETGIEFYIFREHRD | 4.22 ± 0.047
LKRRPFDAFNVRMVLVNECG | inactive

Substance | amyloid nucleation score
LKSDRSLMLIEPALDLIWYF | -0.27 ± 1.1
LKSEALDGAADCRGCYSGPL | 0.374 ± 0.64
LKSKVTLSYYSIVPAISVYE | inactive
LKVAVLVSGLGLA | 0.54 ± 0.46
LKYDSKPSRVWMEICLYDAR | 7.192 ± 0.054
LLEFWDHLVYSMIECNRKNV | inactive
LLFIICTDSFRLPTANGELY | -1.17 ± 0.41
LLFLAG | -0.358 ± 0.79
LLFMSSNIFDMCREFDRC | inactive
LLFMVIFDRECRVIIHCGTM | -0.21 ± 0.34
LLFQNLIRRLCSMCQFGGCV | -0.531 ± 0.46
LLFVCVFYVYSSPDNHILAM | -0.633 ± 1.1
LLHSSYIIK | 0.115 ± 1
LLIFGVVLRVMNVVDPIRDI | -1.13 ± 0.55
LLIINIEMYRCNRLLYIDNN | 3.15 ± 0.097
LLITR | -0.183 ± 1
LLLGTSVDVFL | 0.07 ± 0.74
LLLLWYRNQPHITDAFRQEL | 0.733 ± 0.44
LLNFMCIYYEWFQRSAEHAT | -0.605 ± 0.76
LLNYTRGACCDRTRVQFSTT | -0.079 ± 0.76
LLQKFVMGGEVRRESGGVRC | 0.726 ± 0.25
LLRAT | 0.598 ± 0.23
LLRILANQLKYYETTLCVGG | -0.27 ± 1.1
LLSPYMLRLMV | -0.299 ± 0.79
LLSSFIALSWCWRWFKHSS | 4.972 ± 0.045

Substance | amyloid nucleation score
LLSVASRLLVPFRERGNGS | -0.256 ± 1.1
LLVAKYNLEYRMLSCSDNRQ | 3.1 ± 0.17
LLYHVGSTMGKPIYN | -0.669 ± 1
LMALTPIVVVYIMGSMDLST | -0.436 ± 1.1
LMCNKESSNPICGLWVCFWA | 9.489 ± 0.037
LMCTSAKSADMSH | 0.992 ± 0.6
LMFMLRYPLHASWLGSTHVY | 0.422 ± 0.44
LMIVKMTMFDATGHVGFLMV | 2.82 ± 0.071
LMLLYIRSKYGEFVWIPKVH | -0.021 ± 0.54
LMLTCKLSFPGLVNLSCSPI | -0.84 ± 0.34
LMLVVQALNHAYLLQVMSCT | 0.805 ± 0.67
LMPDSCSNPRWKTEVLTIRG | -0.199 ± 1.1
LMSQCT | -0.926 ± 0.64
LMTSYLRSPDSAPETLRE | -0.484 ± 0.49
LNALIHYVER | 0.842 ± 0.42
LNCYFGHRDPIFSRMNICDY | -0.469 ± 1.1
LNDGPEGTCWSPNGVNSLLH | -0.382 ± 0.76
LNDHNFLCPLTYKVRRLYNN | -1.53 ± 0.53
LNFIRCYVSPCVSFLSLYII | inactive
LNFWLHD | 0.09 ± 1
LNHGNMEYWLSMDVINLSQI | 0.238 ± 0.3
LNHKDICFARNLVRVREGHN | 0.809 ± 0.38
LNILHNFRKRTLFAAMFVLR | inactive
LNISFSDSLSRLVV | -0.935 ± 1.1
LNLLK | -1.18 ± 1.1

Substance | amyloid nucleation score
LNMVLDF | inactive
LNQNPLFTN | -0.11 ± 0.76
LNRDFMVHLSCGTWPSARKW | 0.067 ± 0.5
LNSMTILLSN | 0.54 ± 0.56
LNTTLLTRPVLSSYRGSTAE | 1.23 ± 0.45
LNVDGAFGKTAWYFRFVIQV | -0.127 ± 1
LNVGPQGYMCGSPLYDHCG | 2.73 ± 0.076
LPFMECC | -0.696 ± 1
LPGQGIWWHICIEG | 1.24 ± 0.14
LPNRVNDRDAEYHVMLLCK | 0.095 ± 0.27
LQASIIAMVRGRTNDSFLED | 2.7 ± 0.21
LQCYPWIYGGSGHPYRFWNL | -0.331 ± 0.8
LQHYDLGSCSCRWVLVTSDK | 0.584 ± 0.22
LQMPVVF | -0.577 ± 0.26
LQSTILIYVVNFFTTGIMGK | 1.75 ± 0.11
LQVVVMFCPSL | 8.29 ± 0.024
LRAGLMHGWMRFRCTRVACV | -0.914 ± 0.64
LRFMNPRSALRYTKVSCTGN | -0.587 ± 0.54
LRKALIDAFRT | 2.18 ± 0.066
LRKIYFWWAATNALLEMRGW | 0.057 ± 0.38
LRKPSTIFEHDAKNSRV | -0.67 ± 0.79
LRMHFMMWTRRVNLVRHGNN | inactive
